Results taken from article PMC4342108.

Key:
Assay in all cases: SPR
[1] = target: T1, tCid1 mutant 3 (Schizosaccharomyces pombe, UniProt O13833 33-405, R277A;K282A)
T1 sequence: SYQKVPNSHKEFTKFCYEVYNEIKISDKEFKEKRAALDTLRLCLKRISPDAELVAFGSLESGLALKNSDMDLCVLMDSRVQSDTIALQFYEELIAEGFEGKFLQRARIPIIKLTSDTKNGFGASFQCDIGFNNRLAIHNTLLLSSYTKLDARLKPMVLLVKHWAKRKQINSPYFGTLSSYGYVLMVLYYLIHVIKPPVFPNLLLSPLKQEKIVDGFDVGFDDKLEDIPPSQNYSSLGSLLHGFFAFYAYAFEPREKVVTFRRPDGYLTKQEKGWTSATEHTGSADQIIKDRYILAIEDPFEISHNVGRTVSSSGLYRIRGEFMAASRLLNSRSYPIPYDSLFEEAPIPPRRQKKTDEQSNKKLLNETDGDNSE

[2] = target: T2, tCid1 (wild type) (Schizosaccharomyces pombe, UniProt O13833 33-405)
T2 sequence: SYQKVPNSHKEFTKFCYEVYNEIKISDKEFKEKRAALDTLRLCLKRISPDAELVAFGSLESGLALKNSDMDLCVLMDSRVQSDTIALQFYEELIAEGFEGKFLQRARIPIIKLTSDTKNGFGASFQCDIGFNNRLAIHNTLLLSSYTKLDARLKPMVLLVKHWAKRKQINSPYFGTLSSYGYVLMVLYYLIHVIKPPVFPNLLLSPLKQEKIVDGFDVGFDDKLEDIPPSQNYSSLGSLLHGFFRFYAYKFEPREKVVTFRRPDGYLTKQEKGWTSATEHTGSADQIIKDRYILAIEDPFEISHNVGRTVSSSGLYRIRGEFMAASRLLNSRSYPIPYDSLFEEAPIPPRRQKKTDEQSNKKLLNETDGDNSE

[3] = target: T3, tCid1 mutant 2 (Schizosaccharomyces pombe, UniProt O13833 33-405, K321A;R323A)
T3 sequence: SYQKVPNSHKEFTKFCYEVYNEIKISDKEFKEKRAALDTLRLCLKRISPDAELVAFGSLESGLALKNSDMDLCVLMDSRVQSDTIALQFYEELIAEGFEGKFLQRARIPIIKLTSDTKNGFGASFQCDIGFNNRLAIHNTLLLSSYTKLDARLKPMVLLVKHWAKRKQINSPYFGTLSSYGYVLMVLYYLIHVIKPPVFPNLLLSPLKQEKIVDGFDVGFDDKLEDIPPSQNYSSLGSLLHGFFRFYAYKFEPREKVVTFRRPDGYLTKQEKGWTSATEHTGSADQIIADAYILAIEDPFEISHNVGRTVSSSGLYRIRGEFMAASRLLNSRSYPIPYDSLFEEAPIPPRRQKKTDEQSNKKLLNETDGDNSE

[4] = target: T4, tCid1 mutant 1 (Schizosaccharomyces pombe, UniProt O13833 33-405, K133A;R137A)
T4 sequence: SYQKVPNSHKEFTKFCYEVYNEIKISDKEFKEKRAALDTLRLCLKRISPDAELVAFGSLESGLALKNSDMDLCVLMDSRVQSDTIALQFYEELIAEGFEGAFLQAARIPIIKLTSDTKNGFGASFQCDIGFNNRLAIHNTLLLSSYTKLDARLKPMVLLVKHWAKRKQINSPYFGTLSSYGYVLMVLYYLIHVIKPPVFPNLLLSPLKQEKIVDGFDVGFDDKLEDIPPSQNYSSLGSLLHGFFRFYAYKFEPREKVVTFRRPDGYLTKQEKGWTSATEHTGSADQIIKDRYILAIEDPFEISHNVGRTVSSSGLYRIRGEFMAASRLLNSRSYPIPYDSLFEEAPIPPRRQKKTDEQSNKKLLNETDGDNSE

B1: 21 nt SPR RNA (ssRNA)
RNA: GAUUUGACGUUGGUUUUGACG
B1 gave a Kd [1] of about 410 nM, a Kd [2] of about 100 nM and a Kd [3] of about 450 nM. It also gave a Kd [4] of about 200 nM.
